Earlier results, collected in article PMC3617488 (European journal of nuclear medicine and molecular imaging, 2011).

Tests used:
[1] = human

Substance | Plasma half-life (comparison with exendin-4) | Half-life of the parent peptide [1] [h]
AC3174: exendin-4 analog which contains a leucine for methionine substitution | shorter plasma half-life | 
exendin-4: subcutaneously administered peptide drug used in the treatment of type 2 diabetes |  | 9.57
